The target in series [1] is T1, P60_tth (TTHA0266), full-length (Thermus thermophilus, UniProt Q5SLM7).
T1 construct: full-length P60_tth (LysM1, LysM2, NlpC/P60 catalytic domain); Trx/His/S-tag fusion cut by TEV, expressed in E. coli BL21 Rosetta 2 (DE3)
The experiment in a line: microscale thermophoresis. The series is classed as binding. The note with it: labelled protein (200 nM); 50 mM phosphate pH 7.5, 0.1% Tween 20; incubated 1 h at 60°C, measured at room temperature; read-out: apparent Kd.

The target in a further series is T2, P60_2LysM (Thermus thermophilus, UniProt Q5SLM7).
T2 construct: gene TTHA0266; LysM1-LysM2 only, no catalytic domain; Trx/His/S-tag fusion cut by TEV, expressed in E. coli
T2 sequence (Q5SLM7 15-114 limits assumed): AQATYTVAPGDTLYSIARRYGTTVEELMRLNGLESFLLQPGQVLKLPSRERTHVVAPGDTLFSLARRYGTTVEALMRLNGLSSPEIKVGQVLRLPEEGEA
The series is described as follows: X-ray co-crystal structure, […] Å. The series is classed as binding. The note with it: co-crystallized at protein:sugar 1:2; LysM1 and LysM2 of symmetry-related monomers share one ligand; pH 6.5.

For series [2], the target named is T3, P60_tth (TTHA0266), full-length (Thermus thermophilus, UniProt Q5SLM7, F76A/R80A/E99A).
T3 construct: full-length P60_tth (LysM1, LysM2, NlpC/P60 catalytic domain); Trx/His/S-tag fusion cut by TEV, expressed in E. coli BL21 Rosetta 2 (DE3)
T3 sequence (Q5SLM7 entry or part of it F76A/R80A/E99A): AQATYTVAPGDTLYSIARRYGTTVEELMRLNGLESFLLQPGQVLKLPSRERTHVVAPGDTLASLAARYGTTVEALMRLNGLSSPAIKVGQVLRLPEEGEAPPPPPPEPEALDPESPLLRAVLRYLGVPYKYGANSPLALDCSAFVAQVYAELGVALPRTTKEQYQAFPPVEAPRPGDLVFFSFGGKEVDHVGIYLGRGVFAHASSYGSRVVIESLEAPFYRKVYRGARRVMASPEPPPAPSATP
The series is described as follows: microscale thermophoresis. The class given is binding. The following applies: labelled protein (200 nM); 50 mM phosphate pH 7.5, 0.1% Tween 20; incubated 1 h at 60°C, measured at room temperature; P60_tth_LysM2_mut. A general note: MST reads how a fluorescent partner responds to local heating, with and without ligand.

Series [3] concerns the target T4, P60_tth (TTHA0266), full-length (Thermus thermophilus, UniProt Q5SLM7, Y28A/R32A/F50A/Q53A).
T4 construct: full-length P60_tth (LysM1, LysM2, NlpC/P60 catalytic domain); Trx/His/S-tag fusion cut by TEV, expressed in E. coli BL21 Rosetta 2 (DE3)
The experiment in a line: microscale thermophoresis. The class given is binding. The following applies: labelled protein (200 nM); 50 mM phosphate pH 7.5, 0.1% Tween 20; incubated 1 h at 60°C, measured at room temperature; P60_tth_LysM1_mut (Nus/His/S-tag fusion, tags cleaved).

In series [4] the target is P60_cata (catalytic domain of P60_tth alone) (Thermus thermophilus). The experiment in a line: SAXS; small-angle X-ray scattering in solution, ESRF beamline BM-29; molecular weight estimated from the scattering; models evaluated with CRYSOL and CORAL.
Series [5] shares this target. The experiment in a line: SEC; Superdex 75 10/300 GL, 50 mM Tris-HCl pH 8, 200 mM NaCl, 5 mM beta-mercaptoethanol, 0.5 ml/min; apparent molecular weight from a calibration curve. For orientation: SEC sorts molecules by how far they enter the pores of the column.
Series [6] addresses P60_tth (TTHA0266), NlpC/P60 D,L-endopeptidase from Thermus thermophilus, full-length protein (Thermus thermophilus) (UniProt Q5SLM7). The experiment in a line: SAXS; small-angle X-ray scattering in solution, ESRF beamline BM-29; molecular weight estimated from the scattering; models evaluated with CRYSOL and CORAL.
Series [7] shares this target. The series is described as follows: SEC; Superdex 75 10/300 GL, 50 mM Tris-HCl pH 8, 200 mM NaCl, 5 mM beta-mercaptoethanol, 0.5 ml/min; apparent molecular weight from a calibration curve.
Series [8] concerns the molecule itself. The description is as above.

T4 sequence (Q5SLM7 entry or part of it Y28A/R32A/F50A/Q53A): as the sequence (Q5SLM7 entry or part of it F76A/R80A/E99A) above, with Y14A, R18A, F36A, Q39A, A62F, A66R, A85E counted along it
T1 sequence (Q5SLM7 15-258): as the sequence (Q5SLM7 entry or part of it F76A/R80A/E99A) above, with A62F, A66R, A85E counted along it

Turning to `CC(=O)N[C@H]1[C@H](O[C@H]2[C@H](O)[C@@H](NC(C)=O)[C@H](O[C@H]3[C@H](O)[C@@H](NC(C)=O)C(O)O[C@@H]3CO)O[C@@H]2CO)O[C@H](CO)[C@@H](O[C@@H]2O[C@H](CO)[C@@H](O[C@@H]3O[C@H](CO)[C@@H](O[C@@H]4O[C@H](CO)[C@@H](O)[C@H](O)[C@H]4NC(C)=O)[C@H](O)[C@H]3NC(C)=O)[C@H](O)[C@H]2NC(C)=O)[C@@H]1O` (stereo partly drawn) [chitohexaose], the Kd in [1] was found to be 90 ± 19.8 µM; in series [2], 292 ± 86.5 µM; in series [3], 321 ± 112 µM. The “X-ray co-crystal structure, 1.75 Å” value on P60_2LysM is listed as “solved the crystal structure of P60_2LysM bound to chitohexaose”.

What is called stoichiometry N is a count of units in the complex or per binding partner. With “P60_cata (catalytic domain of P60_tth alone) (domain or fragment)”, the stoichiometry N in series [4] and in series [5] was 2 each time.

Take “P60_tth (TTHA0266), NlpC/P60 D,L-endopeptidase from Thermus thermophilus, full-length protein (from UniProt Q5SLM7 1-258) (enzyme)”: the stoichiometry N in [6] and in series [7] was 2 throughout.

B1: P60_1LysM (P60_tth with the N-terminal LysM domain deleted) (domain or fragment, Thermus thermophilus, UniProt Q5SLM7 62-258, looked up)
chain: SRERTHVVAPGDTLFSLARRYGTTVEALMRLNGLSSPEIKVGQVLRLPEEGEAPPPPPPEPEALDPESPLLRAVLRYLGVPYKYGANSPLALDCSAFVAQVYAELGVALPRTTKEQYQAFPPVEAPRPGDLVFFSFGGKEVDHVGIYLGRGVFAHASSYGSRVVIESLEAPFYRKVYRGARRVMASPEPPPAPSATP
notes: TTHA0266 (P60_tth) of Thermus thermophilus without the N-terminal LysM domain (LysM2, linker and catalytic domain); predicted molecular weight 21.4 kDa; with Val69 and Thr74 of the text this puts the first residue at Ser62; The start was worked out from the translated primer and the residue numbers printed for LysM2; the C-terminus is as in the full-length construct; source: E. coli BL21 Rosetta …
For the molecule B1, in series [8], the “stoichiometry N” value worked out at 2.

(Values after paper PMC4356369, “An intermolecular binding mechanism involving multiple LysM domains mediates carbohydrate recognition by an endopeptidase” (Acta Crystallographica Section D: Biological Crystallography, 2015).)
